Reference: article PMC10402242

Biological target: T1, macrophage migration inhibitory factor (MIF) (human (endogenous in MCF-7)), P14174
T1 chain: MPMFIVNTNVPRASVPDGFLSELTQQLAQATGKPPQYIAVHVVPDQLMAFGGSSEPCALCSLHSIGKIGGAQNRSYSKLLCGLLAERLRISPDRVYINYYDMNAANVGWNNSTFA
Assay: native MS; native top-down proteomics: whole cell lysates of MCF-7 and MCF-7-EGFR (EGFR-overexpressing) cells fractionated by native SEC, concentrated with molecular weight cutoff filters, direct ESI infusion FAIMS-MSn with HCD, Orbitrap detection; endogenous assemblies
Settings: remark: other sources report otherwise

B1: macrophage migration inhibitory factor (MIF), P14174 1-115 (natural protein)
chain: MPMFIVNTNVPRASVPDGFLSELTQQLAQATGKPPQYIAVHVVPDQLMAFGGSSEPCALCSLHSIGKIGGAQNRSYSKLLCGLLAERLRISPDRVYINYYDMNAANVGWNNSTFA
modifications: here or on the partner: proteoforms released from the trimers: unmodified, nitrosylated at C80, acetylated at K77, truncated; phosphorylated subunits also reported (site not given); proteoforms released from the trimers: unmodified, nitrosylated at C80, acetylated at K77, truncated; phosphorylated subunits also reported (site not given)
- stoichiometry N: 3
